Assay results as given in patent US10562947B2, “Compositions and methods for preventing or treating diseases, conditions or processes characterized by aberrant fibroblast proliferation and extracellular matrix deposition” (MOERAE MATRIX, INC., priority 2011, dated 2020).

Tests used:
Experiment in all cases: Kinase Profiling Assay
Format in all cases: biochemical
Settings in all cases: 100 μM peptide
Aurora-B(h) = Aurora-B(h) (Homo sapiens, UniProt Q96GD4)
How it was run: (§1)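 Selectivity profiling: MK2-targeting peptides tested on 266 human kinases. All activity determinations done in duplicate.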

BTK(R28H)(h) = BTK(R28H)(h) (Homo sapiens, UniProt Q06187, R28H)
How it was run: as §1

CDK3/cyclinE(h) = CDK3/cyclinE(h) (Homo sapiens, UniProt Q00526)
How it was run: as §1

CDK7/cyclinH/MAT1(h) = CDK7/cyclinH/MAT1(h) (Homo sapiens, UniProt P50613)
Chain of CDK7/cyclinH/MAT1(h) (P50613 whole entry): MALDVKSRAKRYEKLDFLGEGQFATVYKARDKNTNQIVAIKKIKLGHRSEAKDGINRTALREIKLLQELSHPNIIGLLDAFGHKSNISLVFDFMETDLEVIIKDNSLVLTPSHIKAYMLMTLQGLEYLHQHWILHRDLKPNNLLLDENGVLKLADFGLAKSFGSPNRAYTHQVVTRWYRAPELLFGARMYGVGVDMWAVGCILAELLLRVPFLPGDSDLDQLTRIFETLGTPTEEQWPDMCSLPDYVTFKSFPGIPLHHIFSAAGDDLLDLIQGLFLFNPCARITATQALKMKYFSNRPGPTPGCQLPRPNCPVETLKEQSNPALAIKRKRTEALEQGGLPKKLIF
Chain of CDK7/cyclinH/MAT1(h) (P51946 whole entry partner): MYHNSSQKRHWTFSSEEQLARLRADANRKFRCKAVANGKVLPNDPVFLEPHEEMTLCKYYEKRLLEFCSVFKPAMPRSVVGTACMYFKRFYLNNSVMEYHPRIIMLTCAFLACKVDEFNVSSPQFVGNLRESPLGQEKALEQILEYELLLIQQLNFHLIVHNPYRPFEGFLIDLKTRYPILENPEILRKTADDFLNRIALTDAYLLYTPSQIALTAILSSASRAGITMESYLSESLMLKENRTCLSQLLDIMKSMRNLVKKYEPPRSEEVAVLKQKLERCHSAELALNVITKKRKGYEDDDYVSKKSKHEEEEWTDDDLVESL
Chain of CDK7/cyclinH/MAT1(h) (P51948 whole entry partner): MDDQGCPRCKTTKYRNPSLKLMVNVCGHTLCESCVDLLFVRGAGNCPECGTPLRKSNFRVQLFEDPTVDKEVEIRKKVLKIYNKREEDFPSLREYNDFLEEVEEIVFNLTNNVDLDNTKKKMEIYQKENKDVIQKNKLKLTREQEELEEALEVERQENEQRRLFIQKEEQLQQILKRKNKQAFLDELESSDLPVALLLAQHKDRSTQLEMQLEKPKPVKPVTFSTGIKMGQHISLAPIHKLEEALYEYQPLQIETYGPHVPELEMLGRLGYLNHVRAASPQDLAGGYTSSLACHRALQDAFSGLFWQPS
How it was run: as §1

CK2(h) = CK2(h) (Homo sapiens, UniProt P68400)
Chain of CK2(h) (P68400 whole entry): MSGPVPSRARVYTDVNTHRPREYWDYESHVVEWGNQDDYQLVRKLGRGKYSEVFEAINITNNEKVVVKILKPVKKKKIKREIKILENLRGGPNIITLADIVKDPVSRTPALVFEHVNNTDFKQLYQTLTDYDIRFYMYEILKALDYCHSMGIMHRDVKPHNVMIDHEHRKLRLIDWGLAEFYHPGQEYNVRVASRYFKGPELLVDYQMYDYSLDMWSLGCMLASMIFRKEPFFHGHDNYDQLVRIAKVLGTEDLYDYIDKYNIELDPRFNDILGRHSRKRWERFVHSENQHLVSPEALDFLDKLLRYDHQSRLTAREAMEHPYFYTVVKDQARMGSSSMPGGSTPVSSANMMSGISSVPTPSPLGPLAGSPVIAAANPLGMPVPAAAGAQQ
Chain of CK2(h) (P67870 whole entry partner): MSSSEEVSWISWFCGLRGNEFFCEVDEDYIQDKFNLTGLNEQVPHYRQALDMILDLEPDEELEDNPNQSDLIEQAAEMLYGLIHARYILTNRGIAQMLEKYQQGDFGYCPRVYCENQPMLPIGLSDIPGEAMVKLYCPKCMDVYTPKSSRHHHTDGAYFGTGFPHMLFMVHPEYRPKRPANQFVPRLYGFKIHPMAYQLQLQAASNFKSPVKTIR
How it was run: as §1

EphA4(h) = EphA4(h) (Homo sapiens, UniProt P54764)
Chain of EphA4(h) (P54764 20-986): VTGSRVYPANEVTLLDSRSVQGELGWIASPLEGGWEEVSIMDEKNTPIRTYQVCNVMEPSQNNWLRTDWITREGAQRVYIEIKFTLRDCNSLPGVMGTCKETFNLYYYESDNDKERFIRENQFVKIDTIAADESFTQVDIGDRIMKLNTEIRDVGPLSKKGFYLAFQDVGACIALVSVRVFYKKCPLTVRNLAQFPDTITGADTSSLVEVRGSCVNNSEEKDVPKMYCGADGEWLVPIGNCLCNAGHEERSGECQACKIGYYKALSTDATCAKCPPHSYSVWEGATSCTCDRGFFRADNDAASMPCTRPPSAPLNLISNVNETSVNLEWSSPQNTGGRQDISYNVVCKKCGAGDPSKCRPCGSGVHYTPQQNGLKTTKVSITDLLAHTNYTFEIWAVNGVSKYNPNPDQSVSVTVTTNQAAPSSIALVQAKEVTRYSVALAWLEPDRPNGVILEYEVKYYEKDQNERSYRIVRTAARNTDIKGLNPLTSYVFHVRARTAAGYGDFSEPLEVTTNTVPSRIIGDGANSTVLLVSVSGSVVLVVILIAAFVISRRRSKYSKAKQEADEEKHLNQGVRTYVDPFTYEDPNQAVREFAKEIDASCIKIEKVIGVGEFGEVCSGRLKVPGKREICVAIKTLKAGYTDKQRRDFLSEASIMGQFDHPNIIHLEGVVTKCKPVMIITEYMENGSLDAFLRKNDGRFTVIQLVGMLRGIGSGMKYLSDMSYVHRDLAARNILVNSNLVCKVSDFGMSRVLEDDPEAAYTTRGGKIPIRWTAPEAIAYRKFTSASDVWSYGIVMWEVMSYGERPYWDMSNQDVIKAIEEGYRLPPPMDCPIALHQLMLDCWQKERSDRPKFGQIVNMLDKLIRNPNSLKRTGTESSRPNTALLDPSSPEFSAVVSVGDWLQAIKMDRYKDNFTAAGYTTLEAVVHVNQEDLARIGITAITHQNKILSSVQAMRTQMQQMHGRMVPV
How it was run: as §1

ErbB4(h) = ErbB4(h) (Homo sapiens, UniProt Q15303)
Chain of ErbB4(h) (Q15303 26-1308): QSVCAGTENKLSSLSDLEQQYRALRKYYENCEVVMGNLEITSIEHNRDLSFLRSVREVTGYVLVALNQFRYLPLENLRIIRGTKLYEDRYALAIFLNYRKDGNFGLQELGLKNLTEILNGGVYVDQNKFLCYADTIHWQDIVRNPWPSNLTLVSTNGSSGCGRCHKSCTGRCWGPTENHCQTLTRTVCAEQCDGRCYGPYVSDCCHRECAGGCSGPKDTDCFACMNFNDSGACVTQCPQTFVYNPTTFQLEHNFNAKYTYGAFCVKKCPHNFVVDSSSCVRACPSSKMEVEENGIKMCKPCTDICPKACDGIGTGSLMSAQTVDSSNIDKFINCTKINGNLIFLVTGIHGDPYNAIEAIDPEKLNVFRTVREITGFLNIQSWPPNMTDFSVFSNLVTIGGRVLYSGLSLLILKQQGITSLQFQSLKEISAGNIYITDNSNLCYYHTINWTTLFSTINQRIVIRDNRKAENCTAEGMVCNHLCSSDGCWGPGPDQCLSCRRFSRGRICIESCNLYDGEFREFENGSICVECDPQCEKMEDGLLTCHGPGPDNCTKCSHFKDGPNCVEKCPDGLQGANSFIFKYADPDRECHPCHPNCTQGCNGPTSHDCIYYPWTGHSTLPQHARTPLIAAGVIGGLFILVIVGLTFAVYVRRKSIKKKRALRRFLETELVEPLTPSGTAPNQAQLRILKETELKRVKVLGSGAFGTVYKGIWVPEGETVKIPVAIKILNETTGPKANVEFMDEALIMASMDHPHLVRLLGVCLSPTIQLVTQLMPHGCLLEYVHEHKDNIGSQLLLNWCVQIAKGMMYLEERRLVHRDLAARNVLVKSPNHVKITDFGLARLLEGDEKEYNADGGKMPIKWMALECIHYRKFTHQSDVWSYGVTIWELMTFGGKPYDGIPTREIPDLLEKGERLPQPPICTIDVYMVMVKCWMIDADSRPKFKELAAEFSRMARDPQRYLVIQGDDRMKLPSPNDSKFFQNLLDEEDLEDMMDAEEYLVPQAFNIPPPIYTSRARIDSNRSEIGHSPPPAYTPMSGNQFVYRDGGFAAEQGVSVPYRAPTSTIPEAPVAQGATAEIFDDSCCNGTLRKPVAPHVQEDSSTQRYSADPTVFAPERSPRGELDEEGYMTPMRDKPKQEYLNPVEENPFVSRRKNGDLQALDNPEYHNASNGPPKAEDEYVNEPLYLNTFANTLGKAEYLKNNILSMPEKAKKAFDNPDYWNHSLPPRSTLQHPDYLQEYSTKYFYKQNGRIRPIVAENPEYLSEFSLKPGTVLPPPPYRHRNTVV
How it was run: as §1

LIMK1(h) = LIMK1(h) (Homo sapiens, UniProt P53667)
How it was run: as §1

MELK(h) = MELK(h) (Homo sapiens, UniProt Q14680)
How it was run: as §1

MRCKβ(h) = MRCKβ(h) (Homo sapiens, UniProt Q9Y5S2)
How it was run: as §1

MSK2(h) = MSK2(h) (Homo sapiens, UniProt O75676)
Chain of MSK2(h) (O75676 whole entry): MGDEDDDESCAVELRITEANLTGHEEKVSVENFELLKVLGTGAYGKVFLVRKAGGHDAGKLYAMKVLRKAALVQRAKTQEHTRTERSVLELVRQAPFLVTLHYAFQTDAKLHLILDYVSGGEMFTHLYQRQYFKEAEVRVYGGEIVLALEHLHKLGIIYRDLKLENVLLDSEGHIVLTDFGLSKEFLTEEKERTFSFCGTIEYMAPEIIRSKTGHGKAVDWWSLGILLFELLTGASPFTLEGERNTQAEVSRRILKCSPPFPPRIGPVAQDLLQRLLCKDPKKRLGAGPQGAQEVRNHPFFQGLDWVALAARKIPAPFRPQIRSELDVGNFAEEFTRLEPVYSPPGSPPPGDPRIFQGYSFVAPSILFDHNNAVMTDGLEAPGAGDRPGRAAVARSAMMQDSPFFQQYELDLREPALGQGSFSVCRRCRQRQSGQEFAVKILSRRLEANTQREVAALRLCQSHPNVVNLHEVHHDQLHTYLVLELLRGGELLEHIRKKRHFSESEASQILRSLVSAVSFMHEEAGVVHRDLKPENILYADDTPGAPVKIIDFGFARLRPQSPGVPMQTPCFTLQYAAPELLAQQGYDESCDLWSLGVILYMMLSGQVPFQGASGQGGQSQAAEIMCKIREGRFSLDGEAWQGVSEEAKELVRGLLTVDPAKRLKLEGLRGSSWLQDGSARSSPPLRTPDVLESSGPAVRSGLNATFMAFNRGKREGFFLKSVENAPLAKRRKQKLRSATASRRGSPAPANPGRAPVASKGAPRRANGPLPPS
How it was run: as §1

Mer(h) = target: T1, Mer(h) (Homo sapiens, UniProt Q12866)
T1 sequence (Q12866 21-999): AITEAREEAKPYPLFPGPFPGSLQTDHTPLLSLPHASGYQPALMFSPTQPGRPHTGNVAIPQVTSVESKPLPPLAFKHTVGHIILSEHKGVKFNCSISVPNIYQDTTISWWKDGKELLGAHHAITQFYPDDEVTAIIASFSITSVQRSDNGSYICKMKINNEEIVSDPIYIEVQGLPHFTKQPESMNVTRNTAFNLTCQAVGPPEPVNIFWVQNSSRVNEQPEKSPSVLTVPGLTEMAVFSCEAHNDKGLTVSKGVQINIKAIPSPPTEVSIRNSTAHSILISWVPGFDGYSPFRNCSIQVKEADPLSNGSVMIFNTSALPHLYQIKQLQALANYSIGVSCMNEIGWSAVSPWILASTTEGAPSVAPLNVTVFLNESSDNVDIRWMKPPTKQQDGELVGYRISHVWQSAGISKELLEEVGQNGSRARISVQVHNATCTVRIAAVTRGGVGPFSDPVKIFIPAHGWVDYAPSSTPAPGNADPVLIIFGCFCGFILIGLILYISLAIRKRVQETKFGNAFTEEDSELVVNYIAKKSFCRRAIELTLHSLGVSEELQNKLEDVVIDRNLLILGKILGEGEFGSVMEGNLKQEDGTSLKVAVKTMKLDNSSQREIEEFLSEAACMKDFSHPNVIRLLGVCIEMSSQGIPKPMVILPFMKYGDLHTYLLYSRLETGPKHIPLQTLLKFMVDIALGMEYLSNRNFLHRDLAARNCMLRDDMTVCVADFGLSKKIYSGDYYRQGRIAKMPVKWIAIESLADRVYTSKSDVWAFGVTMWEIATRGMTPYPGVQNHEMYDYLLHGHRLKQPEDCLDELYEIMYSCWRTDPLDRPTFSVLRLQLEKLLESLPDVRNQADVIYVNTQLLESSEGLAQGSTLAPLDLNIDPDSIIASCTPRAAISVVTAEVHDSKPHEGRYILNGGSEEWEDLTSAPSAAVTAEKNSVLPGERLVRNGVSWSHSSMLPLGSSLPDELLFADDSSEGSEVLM
How it was run: as §1

MuSK(h) = target: T2, MuSK(h) (Homo sapiens, UniProt O15146)
T2 sequence (O15146 24-869): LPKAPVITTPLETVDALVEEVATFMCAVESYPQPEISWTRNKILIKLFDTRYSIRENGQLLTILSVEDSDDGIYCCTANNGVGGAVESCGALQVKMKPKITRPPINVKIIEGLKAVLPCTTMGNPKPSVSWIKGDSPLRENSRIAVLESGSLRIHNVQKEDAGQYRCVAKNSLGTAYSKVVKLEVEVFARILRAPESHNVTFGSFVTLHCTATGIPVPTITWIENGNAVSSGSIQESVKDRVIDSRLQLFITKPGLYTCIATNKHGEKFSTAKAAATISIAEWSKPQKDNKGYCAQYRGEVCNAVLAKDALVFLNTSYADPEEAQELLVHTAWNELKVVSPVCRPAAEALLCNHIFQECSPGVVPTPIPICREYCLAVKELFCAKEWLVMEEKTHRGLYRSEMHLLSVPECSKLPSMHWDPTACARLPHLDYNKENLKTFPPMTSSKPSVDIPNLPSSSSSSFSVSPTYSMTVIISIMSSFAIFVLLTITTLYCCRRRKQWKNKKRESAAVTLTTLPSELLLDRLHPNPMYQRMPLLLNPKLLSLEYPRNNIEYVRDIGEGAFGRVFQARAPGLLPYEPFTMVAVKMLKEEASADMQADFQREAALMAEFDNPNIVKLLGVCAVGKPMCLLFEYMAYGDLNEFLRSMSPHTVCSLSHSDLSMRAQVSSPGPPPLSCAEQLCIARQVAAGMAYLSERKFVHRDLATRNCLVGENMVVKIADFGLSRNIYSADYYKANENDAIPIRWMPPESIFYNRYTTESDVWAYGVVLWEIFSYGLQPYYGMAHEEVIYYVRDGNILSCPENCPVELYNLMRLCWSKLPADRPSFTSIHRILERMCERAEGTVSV
How it was run: as §1

NEK6(h) = NEK6(h) (Homo sapiens, UniProt Q9HC98)
Chain of NEK6(h) (Q9HC98 whole entry): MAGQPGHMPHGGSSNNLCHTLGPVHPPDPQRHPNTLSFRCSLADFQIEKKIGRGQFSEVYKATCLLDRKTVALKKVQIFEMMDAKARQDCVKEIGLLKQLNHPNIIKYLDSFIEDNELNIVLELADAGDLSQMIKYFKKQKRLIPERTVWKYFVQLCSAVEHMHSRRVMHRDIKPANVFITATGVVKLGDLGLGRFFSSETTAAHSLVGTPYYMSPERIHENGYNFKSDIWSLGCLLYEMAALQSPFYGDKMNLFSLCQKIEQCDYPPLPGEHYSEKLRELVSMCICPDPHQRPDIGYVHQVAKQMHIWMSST
How it was run: as §1

PAK2(h) = PAK2(h) (Homo sapiens, UniProt Q13177)
How it was run: as §1

PDGFRβ(h) = PDGFRβ(h) (Homo sapiens, UniProt P09619)
How it was run: as §1

BTK(h) = BTK(h) (Homo sapiens, UniProt Q06187)
How it was run: as §1

Row | Sequence | Aurora-B(h) % activity (Aurora-B(h)) [%] | BTK(R28H)(h) % activity (BTK(R28H)(h)) [%] | CDK3/cyclinE(h) % activity (CDK3/cyclinE(h)) [%] | CDK7/cyclinH/MAT1(h) % activity (CDK7/cyclinH/MAT1(h)) [%] | CK2(h) % activity (CK2(h)) [%] | EphA4(h) % activity (EphA4(h)) [%] | ErbB4(h) % activity (ErbB4(h)) [%] | LIMK1(h) % activity (LIMK1(h)) [%] | MELK(h) % activity (MELK(h)) [%] | MRCKβ(h) % activity (MRCKβ(h)) [%] | MSK2(h) % activity (MSK2(h)) [%] | Mer(h) % activity (Mer(h)) [%] | MuSK(h) % activity (MuSK(h)) [%] | NEK6(h) % activity (NEK6(h)) [%] | PAK2(h) % activity (PAK2(h)) [%] | PDGFRβ(h) % activity (PDGFRβ(h)) [%] | BTK(h) % activity (BTK(h)) [%]
1 | FAKLAARLYRKALARQLGVAA [MMI-0300] | 128 | 74 | 94 | 65 | 90 | 88 | 40 | 88 | 16 | 83 | 56 | 52 | 93 | 82 | 65 | 81 | 
2 | KAFAKLAARLYRKALARQLGVAA [MMI-0400] | 150 | 24 | 92 | 47 | 101 | 65 | 0 | 92 | 17 | 71 | 52 | 50 | 93 | 85 | 59 | 53 | 94
3 | HRRIKAWLKKIKALARQLGVAA (Mammalian) [MMI-0500] | 5 | 10 | 8 | 15 | 93 | 48 | 2 | 87 | 0 | −10 | 14 | 17 | 27 | 49 | 44 | 40 | 18
4 | YARAAARQARAKALNRQLGVA (Mammalian) [MMI-0200] | 166 |  |  | 67 | 83 | 127 | 82 |  | 59 |  | 88 | 90 |  | 98 | 69 | 137 | 100
